Measurements from patent US20240182541A1 (CONCEPT TO MEDICINE BIOTECH, published 2024).

T1: B7-H3 on B7H3-expressing A375 and A375.S2 cells (UniProt Q5ZPR3 29-534, limits assumed)
T1 construct: whole, on cells
T1 sequence (looked up): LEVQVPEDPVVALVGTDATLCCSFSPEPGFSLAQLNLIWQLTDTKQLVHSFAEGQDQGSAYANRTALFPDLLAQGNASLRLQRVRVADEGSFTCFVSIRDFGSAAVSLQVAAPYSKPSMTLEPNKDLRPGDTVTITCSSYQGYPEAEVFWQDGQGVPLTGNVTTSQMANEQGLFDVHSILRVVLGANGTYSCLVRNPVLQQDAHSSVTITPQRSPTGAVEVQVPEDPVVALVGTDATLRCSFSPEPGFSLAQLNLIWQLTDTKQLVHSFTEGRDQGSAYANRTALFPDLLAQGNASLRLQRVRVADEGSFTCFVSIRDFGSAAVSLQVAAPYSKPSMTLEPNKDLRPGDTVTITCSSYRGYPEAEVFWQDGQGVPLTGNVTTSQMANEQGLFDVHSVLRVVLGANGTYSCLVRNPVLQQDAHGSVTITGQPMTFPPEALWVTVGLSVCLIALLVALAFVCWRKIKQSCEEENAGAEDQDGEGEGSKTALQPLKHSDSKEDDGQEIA

B1: Format 29 (KIH CH3Δ6 mask + cleavable linker PLGLAG on MGA017 variable regions, mIgG1) (antibody)
heavy: GQPREPQVCTLPPSRDELTKNQVSLSCAVKGFYPSDIAVEWESNGQPENNYKTTPPVLDSDGSFFLVSKLTVDKSRWQQGNVFSCSVMHEALHNHYTQKSLPLGLAGEVQLVESGGGLVKPGGSLRLSCAASGFTFSSYGMSWVRQAPGKGLEWVATINSGGSNTYYPDSLKGRFTISRDNAKNSLYLQMNSLRAEDTAVYYCARHDGGAMDYWGQGTTVTVSSAKTTPPSVYPLAPGSAAQTNSMVTLGCLVKGYFPEPVTVTWNSGSLSSGVHTFPAVLQSDLYTLSSSVTVPSSTWPSETVTCNVAHPASSTKVDKKIVPRDCGCKPCICTVPEVSSVFIFPPKPKDVLTITLTPKVTCVVVDISKDDPEVQFSWFVDDVEVHTAQTQPREEQFNSTFRSVSELPIMHQDWLNGKEFKCRVNSAAFPAPIEKTISKTKGRPKAPQVYTIPPPKEQMAKDKVSLTCMITDFFPEDITVEWQWNGQPAENYKNTQPIMDTDGSYFVYSKLNVQKSNWEAGNTFTCSVLHEGLHNHHTEKSLSHSPGK
light: GQPREPQVYTLPPCRDELTKNQVSLWCLVKGFYPSDIAVEWESNGQPENNYKTTPPVLDSDGSFFLYSKLTVDKSRWQQGNVFSCSVMHEALHNHYTQKSLPLGLAGDIQMTQSPSSLSASVGDRVTITCRASESIYSYLAWYQQKPGKAPKLLVYNTKTLPEGVPSRFSGSGSGTDFTLTISSLQPEDFATYYCQHHYGTPPWTFGQGTRLEIKRADAAPTVSIFPPSSEQLTSGGASVVCFLNNFYPKDINVKWKIDGSERQNGVLNSWTDQDSKDSTYSMSSTLTLTKDEYERHNSYTCEATHKTSTSPIVKSFNRNEC
notes: Antibody prodrug against B7-H3, uncleaved
B2: Format 34 (CLκ on VH / CH1 plus EPKSC on VL as mask + GGGS on MGA017 variable regions, hIgG1) (antibody)
heavy: not shown
light: ASTKGPSVFPLAPSSKSTSGGTAALGCLVKDYFPEPVTVSWNSGALTSGVHTFPAVLQSSGLYSLSSVVTVPSSSLGTQTYICNVNHKPSNTKVDKKVEPKSCGGGSDIQMTQSPSSLSASVGDRVTITCRASESIYSYLAWYQQKPGKAPKLLVYNTKTLPEGVPSRFSGSGSGTDFTLTISSLQPEDFATYYCQHHYGTPPWTFGQGTRLEIKRTVAAPSVFIFPPSDEQLKSGTASVVCLLNNFYPREAKVQWKVDNALQSGNSQESVTEQDSKDSTYSLSSTLTLSKADYEKHKVYACEVTHQGLSSPVTKSFNRGEC
notes: Antibody prodrug against B7-H3
B3: Format 31 (KIH CH3Δ6 mask + cleavable linker IPVSLRSGPLGLAG on MGA017 variable regions, mIgG1) (antibody)
heavy: GQPREPQVCTLPPSRDELTKNQVSLSCAVKGFYPSDIAVEWESNGQPENNYKTTPPVLDSDGSFFLVSKLTVDKSRWQQGNVFSCSVMHEALHNHYTQKSLIPVSLRSGPLGLAGEVQLVESGGGLVKPGGSLRLSCAASGFTFSSYGMSWVRQAPGKGLEWVATINSGGSNTYYPDSLKGRFTISRDNAKNSLYLQMNSLRAEDTAVYYCARHDGGAMDYWGQGTTVTVSSAKTTPPSVYPLAPGSAAQTNSMVTLGCLVKGYFPEPVTVTWNSGSLSSGVHTFPAVLQSDLYTLSSSVTVPSSTWPSETVTCNVAHPASSTKVDKKIVPRDCGCKPCICTVPEVSSVFIFPPKPKDVLTITLTPKVTCVVVDISKDDPEVQFSWFVDDVEVHTAQTQPREEQFNSTFRSVSELPIMHQDWLNGKEFKCRVNSAAFPAPIEKTISKTKGRPKAPQVYTIPPPKEQMAKDKVSLTCMITDFFPEDITVEWQWNGQPAENYKNTQPIMDTDGSYFVYSKLNVQKSNWEAGNTFTCSVLHEGLHNHHTEKSLSHSPGK
light: GQPREPQVYTLPPCRDELTKNQVSLWCLVKGFYPSDIAVEWESNGQPENNYKTTPPVLDSDGSFFLYSKLTVDKSRWQQGNVFSCSVMHEALHNHYTQKSLIPVSLRSGPLGLAGDIQMTQSPSSLSASVGDRVTITCRASESIYSYLAWYQQKPGKAPKLLVYNTKTLPEGVPSRFSGSGSGTDFTLTISSLQPEDFATYYCQHHYGTPPWTFGQGTRLEIKRADAAPTVSIFPPSSEQLTSGGASVVCFLNNFYPKDINVKWKIDGSERQNGVLNSWTDQDSKDSTYSMSSTLTLTKDEYERHNSYTCEATHKTSTSPIVKSFNRNEC
notes: as for B1
B4: Format 33 (IgG1 CH3Δ6 hole / IgG4 CH3Δ6 knob mask + GGGS on MGA017 variable regions, hIgG1) (antibody)
heavy: not shown
light: GQPREPQVYTLPPCQEEMTKNQVSLWCLVKGFYPSDIAVEWESNGQPENNYKTTPPVLDSDGSFFLYSRLTVDKSRWQEGNVFSCSVMHEALHNHYTQKSLGGGSDIQMTQSPSSLSASVGDRVTITCRASESIYSYLAWYQQKPGKAPKLLVYNTKTLPEGVPSRFSGSGSGTDFTLTISSLQPEDFATYYCQHHYGTPPWTFGQGTRLEIKRTVAAPSVFIFPPSDEQLKSGTASVVCLLNNFYPREAKVQWKVDNALQSGNSQESVTEQDSKDSTYSLSSTLTLSKADYEKHKVYACEVTHQGLSSPVTKSFNRGEC
notes: as for B2
B5: MGA017 (parental naked anti-B7-H3 antibody) (antibody, V domains shown)
VH: EVQLVESGGGLVKPGGSLRLSCAASGFTFSSYGMSWVRQAPGKGLEWVATINSGGSNTYYPDSLKGRFTISRDNAKNSLYLQMNSLRAEDTAVYYCARHDGGAMDYWGQGTTVTVSS
VL: DIQMTQSPSSLSASVGDRVTITCRASESIYSYLAWYQQKPGKAPKLLVYNTKTLPEGVPSRFSGSGSGTDFTLTISSLQPEDFATYYCQHHYGTPPWTFGQGTRLEIK
notes: Anti-B7-H3 antibody from MacroGenics; also called un-masked MGA017; parental naked antibody of Format 12
B6: MGA017-mIgG1 (parental antibody of Formats 28-31) (antibody, V domains shown)
VH: B5 VH
VL: B5 VL
notes: mIgG1; also called parental antibody MGA017; naked antibody MGA017
B7: Format 30 (KIH CH3Δ6 mask + cleavable linker PLGLAGGGGS on MGA017 variable regions, mIgG1) (antibody)
heavy: GQPREPQVCTLPPSRDELTKNQVSLSCAVKGFYPSDIAVEWESNGQPENNYKTTPPVLDSDGSFFLVSKLTVDKSRWQQGNVFSCSVMHEALHNHYTQKSLPLGLAGGGGSEVQLVESGGGLVKPGGSLRLSCAASGFTFSSYGMSWVRQAPGKGLEWVATINSGGSNTYYPDSLKGRFTISRDNAKNSLYLQMNSLRAEDTAVYYCARHDGGAMDYWGQGTTVTVSSAKTTPPSVYPLAPGSAAQTNSMVTLGCLVKGYFPEPVTVTWNSGSLSSGVHTFPAVLQSDLYTLSSSVTVPSSTWPSETVTCNVAHPASSTKVDKKIVPRDCGCKPCICTVPEVSSVFIFPPKPKDVLTITLTPKVTCVVVDISKDDPEVQFSWFVDDVEVHTAQTQPREEQFNSTFRSVSELPIMHQDWLNGKEFKCRVNSAAFPAPIEKTISKTKGRPKAPQVYTIPPPKEQMAKDKVSLTCMITDFFPEDITVEWQWNGQPAENYKNTQPIMDTDGSYFVYSKLNVQKSNWEAGNTFTCSVLHEGLHNHHTEKSLSHSPGK
light: GQPREPQVYTLPPCRDELTKNQVSLWCLVKGFYPSDIAVEWESNGQPENNYKTTPPVLDSDGSFFLYSKLTVDKSRWQQGNVFSCSVMHEALHNHYTQKSLPLGLAGGGGSDIQMTQSPSSLSASVGDRVTITCRASESIYSYLAWYQQKPGKAPKLLVYNTKTLPEGVPSRFSGSGSGTDFTLTISSLQPEDFATYYCQHHYGTPPWTFGQGTRLEIKRADAAPTVSIFPPSSEQLTSGGASVVCFLNNFYPKDINVKWKIDGSERQNGVLNSWTDQDSKDSTYSMSSTLTLTKDEYERHNSYTCEATHKTSTSPIVKSFNRNEC
notes: as for B1
B8: Format 28 (KIH CH3Δ6 mask + cleavable linker IPVSLRSG on MGA017 variable regions, mIgG1) (antibody)
heavy: GQPREPQVCTLPPSRDELTKNQVSLSCAVKGFYPSDIAVEWESNGQPENNYKTTPPVLDSDGSFFLVSKLTVDKSRWQQGNVFSCSVMHEALHNHYTQKSLIPVSLRSGEVQLVESGGGLVKPGGSLRLSCAASGFTFSSYGMSWVRQAPGKGLEWVATINSGGSNTYYPDSLKGRFTISRDNAKNSLYLQMNSLRAEDTAVYYCARHDGGAMDYWGQGTTVTVSSAKTTPPSVYPLAPGSAAQTNSMVTLGCLVKGYFPEPVTVTWNSGSLSSGVHTFPAVLQSDLYTLSSSVTVPSSTWPSETVTCNVAHPASSTKVDKKIVPRDCGCKPCICTVPEVSSVFIFPPKPKDVLTITLTPKVTCVVVDISKDDPEVQFSWFVDDVEVHTAQTQPREEQFNSTFRSVSELPIMHQDWLNGKEFKCRVNSAAFPAPIEKTISKTKGRPKAPQVYTIPPPKEQMAKDKVSLTCMITDFFPEDITVEWQWNGQPAENYKNTQPIMDTDGSYFVYSKLNVQKSNWEAGNTFTCSVLHEGLHNHHTEKSLSHSPGK
light: GQPREPQVYTLPPCRDELTKNQVSLWCLVKGFYPSDIAVEWESNGQPENNYKTTPPVLDSDGSFFLYSKLTVDKSRWQQGNVFSCSVMHEALHNHYTQKSLIPVSLRSGDIQMTQSPSSLSASVGDRVTITCRASESIYSYLAWYQQKPGKAPKLLVYNTKTLPEGVPSRFSGSGSGTDFTLTISSLQPEDFATYYCQHHYGTPPWTFGQGTRLEIKRADAAPTVSIFPPSSEQLTSGGASVVCFLNNFYPKDINVKWKIDGSERQNGVLNSWTDQDSKDSTYSMSSTLTLTKDEYERHNSYTCEATHKTSTSPIVKSFNRNEC
notes: as for B1

Tests used:
[1] = molecular target: T1, B7-H3 on B7H3-expressing A375 and …; experiment: cell-based binding on A375 and A375.S2 cells (FIG. 13)
[2] = molecular target: T1, B7-H3 on B7H3-expressing A375 and …; experiment: binding to B7H3-expressing A375 cell line (FIG. 18)
Experimental: The binding of these prodrugs against B7H3-expressing A375 cell line were tested.

[3] = molecular target: T1, B7-H3 on B7H3-expressing A375 and …; experiment: cell-based binding assay (FIG. 15A)
[4] = molecular target: T1, B7-H3 on B7H3-expressing A375 and …; experiment: FACS on B7H3-expressing A375 and A375.S2 cells

| Binder | binding result [1] | also measured |
| --- | --- | --- |
| B1 | binds | – |
| B2 | – | binding result [2]: binds |
| B3 | – | binding result [3]: binds |
| B4 | – | binding result [2]: binds |
| B5 | – | binding result [4]: binds |
| B6 | binds | – |
| B7 | binds | – |
| B8 | binds | – |
